Test results published in PMC3673938, “Two Distinct Calmodulin Binding Sites in the Third Intracellular Loop and Carboxyl Tail of Angiotensin II (AT1A) Receptor” (PLoS ONE, 2013).
Substitutions are numbered along the chain they refer to. Numbers in names are those of the source. Blank lines part the entries; values can stand above or below the molecule they belong to.

What was measured:
[1] = tested on: purified bovine brain CaM; test: GST-fusion protein pull-down with purified bovine brain CaM; assay type: binding; conditions: 50 pmol GST-fusion protein, 50 pmol purified bovine CaM, 100 mM Tris-HCl pH 7.5; Ca2+ dependent (0.1 mM CaCl2 vs 1 mM EGTA); repeated five times
Procedure: (§1) GST-fusion proteins were expressed in E. coli BL21 strain cells, and purified by affinity chromatography using immobilized glutathione sepharose 4B beads. Proteins were eluted by reduced glutathione in 50 mM Tris-HCl buffer (pH 8.0), and then concentrated with Centricon filters with 3 kDa MW cut-off. The eluted proteins were either used immediately or stored at −80°C for future use. For GST-fusion protein pull-down assays, fusion proteins were incubated with either cell lysates or purified protein(s) at 4°C for 3 hours, following which glutathione-sepharose 4B beads were added and incubation continued at 4°C for 1 hour. The beads were then recovered by brief centrifugation, followed by 4 washes with the corresponding incubation buffer. The fusion proteins and the proteins to which they were bound were then separated by SDS-PAGE, and identified by staining with Coomassie blue or by immunoblot.
(§2) Figure 1 Interactions of the i3 loop and carboxyl tail of the AT1A receptor with CaM. A, Construction of GST-fusion proteins. Upper panel illustrates a schematic structure of the AT1A receptor and constructs of GST-fusion proteins of the i3 loop and carboxyl tail of the receptor. The numbers represent positions of amino acids in the receptor. […]

[2] = tested on: CaM in rat brain lysates; test: GST-fusion protein pull-down from rat brain lysates; assay type: binding; conditions: 50 pmol GST-fusion protein, 500 µg rat brain lysates, 20 mM Tris-HCl, 70 mM NaCl, pH 7.5; Ca2+ dependent; repeated five times
Procedure: as §1, §2

[3] = tested on: G protein βγ subunits; test: GST-fusion protein pull-down of G protein βγ subunits, with or without CaM; assay type: binding, bovine; conditions: 2 pmol GST-fusion protein, 2 pmol Gβγ, CaM pre-incubated 30 minutes, 20 mM Tris-HCl, 70 mM NaCl, 0.1 mM CaCl2, pH 7.5; 4 or 5 experiments
Procedure: as §1
Figure 7 Effect of CaM on G protein βγ subunit interaction with wild ATi3 or ATct. A. Interaction of G protein βγ subunits and ATi3 or ATct. 50 pmol of GST-ATi3(213–242) or GST-ATct(297–359) were incubated with different amounts of G protein Gβγ subunits in a buffer containing 20 mM Tris-HCl and 70 mM NaCl (pH 7.5). Interactions were assessed by GST-fusion protein pull-down assay, and blots were probed with a specific antibody against Gβ subunits (upper panel). 1 pmol of Gβγ subunit was interacted with different amounts of GST-ATi3(213–242) and GST-ATct(297–359). Interaction was assessed by immunoblot against Gβ subunits (lower panel). B. CaM inhibits the interaction between G protein Gβγ subunits and ATi3 or ATct. 2 pmol of GST-ATi3(213–242) or GST-ATct(297–359) were incubated with different concentrations of pure bovine brain CaM for 30 minutes in a buffer (20 mM Tris-HCl and 70 mM NaCl with 0.1 mM CaCl2, pH 7.5) following which 2 pmol of Gβγ subunits were added and incubated for 1 hour. GST-fusion proteins and their interacting proteins were pulled down by gluthathione-sepharose 4B beads, and subjected to immunoblot. Blots were probed with a specific antibody against Gβ subunits. The summary graph represents means ± S.E. from four independent experiments. C. Effects of CaM on the interactions between G protein βγ subunits and mutated ATi3 and ATct. The method is same as the described in the Figure 7B, except that we used mutated GST-fusion proteins, GST-ATi3(213–242)W219A, ATct(297–359)F309A, and ATct(297–359)F313A. The summary graph represents mean ± S.E. from 4 or 5 independent experiments.

Gβγ binding to GST-fusion protein in the presence of 2 pmol of CaM [3]: 73%
Gβγ binding to GST-fusion protein in the presence of 10 pmol of CaM [3]: 34%
B1: GST-ATct(297–359): GST fused to the carboxyl terminal tail (amino acids 297 to 359) of the AT1A receptor (protein, UniProt P25095 297-359, looked up, fragment)
chain: LNPLFYGFLGKKFKKYFLQLLKYIPPKAKSHSSLSTKMSTLSYRPSDNMSSSAKKPASCFEVE
modifications: carboxyl tail GST fusion
notes: GST fused to the carboxyl terminal tail (amino acids 297 to 359) of the AT1A receptor
interaction with purified CaM (pull-down, in words) [1]: associated
association with CaM from rat brain lysates (pull-down, in words) [2]: associated

Gβγ binding to GST-fusion protein in the presence of 2 pmol of CaM [3]: 99%
Gβγ binding to GST-fusion protein in the presence of 10 pmol of CaM [3]: 83%
B2: GSTATct(F313A): F313A mutant of GST-ATct(297–359) (protein, UniProt P30556 297-359, looked up, fragment F313A)
chain: B1 chain with K15R, F17A, S33N, M49V, A53T, S58P
modifications: GST fusion
